Laboratory results from article PMC9482650, “Quantitative fragmentomics allow affinity mapping of interactomes” (Nature Communications, 2022).

Assays:
Assay in all cases: holdup assay
Parameters in all cases: key: below the threshold = too weak to quantify, mostly under pKd 3.1 to 4
Settings in all cases: plain residues with an end cap or a label only (N-terminal biotin on a linker: ado-ado)
DLG5_1, Q8TDM6 = target: DLG5_1, Q8TDM6
APBA2_1, Q99767 = target: T1, APBA2_1, Q99767
T1 sequence (Q99767 563-664, limits assumed, looked up): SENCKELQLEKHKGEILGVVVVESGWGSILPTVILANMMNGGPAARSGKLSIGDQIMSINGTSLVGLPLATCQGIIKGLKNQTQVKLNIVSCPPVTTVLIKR

MPP6, Q9NZW5 = target: T2, MPP6, Q9NZW5
T2 sequence (Q9NZW5 125-219, limits assumed, looked up): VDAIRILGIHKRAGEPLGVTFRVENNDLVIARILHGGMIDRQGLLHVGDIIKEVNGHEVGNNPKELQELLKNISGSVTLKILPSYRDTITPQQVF

GRIP2_6, Q9C0E4 = target: GRIP2_6, Q9C0E4
PCLO, Q9Y6V0 = target: T3, PCLO, Q9Y6V0
T3 sequence (Q9Y6V0 4491-4600, limits assumed, looked up): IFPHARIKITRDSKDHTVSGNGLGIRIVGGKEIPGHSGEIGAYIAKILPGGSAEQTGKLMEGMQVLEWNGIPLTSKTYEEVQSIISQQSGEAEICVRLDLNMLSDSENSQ

CASK, O14936 = target: CASK, O14936
IL16_1, Q14005 = target: IL16_1, Q14005
NHERF4_2, Q86UT5 = target: NHERF4_2, Q86UT5
DVL3, Q92997 = target: T4, DVL3, Q92997
T4 sequence (Q92997 244-331, limits assumed, looked up): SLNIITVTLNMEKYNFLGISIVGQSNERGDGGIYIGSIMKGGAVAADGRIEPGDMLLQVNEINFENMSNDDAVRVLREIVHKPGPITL

TJP3_3, O95049 = target: T5, TJP3_3, O95049
T5 sequence (O95049 375-456, limits assumed, looked up): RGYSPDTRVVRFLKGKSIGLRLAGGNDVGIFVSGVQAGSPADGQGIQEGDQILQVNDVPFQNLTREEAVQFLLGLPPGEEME

HTRA2, O43464 = target: HTRA2, O43464
ARHGEF11, O15085 = target: T6, ARHGEF11, O15085
T6 sequence (O15085 42-136, limits assumed, looked up): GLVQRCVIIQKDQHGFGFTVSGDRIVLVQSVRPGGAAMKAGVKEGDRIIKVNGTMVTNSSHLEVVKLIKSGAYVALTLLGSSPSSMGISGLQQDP

TIAM2, Q8IVF5 = target: T7, TIAM2, Q8IVF5
T7 sequence (Q8IVF5 885-986, limits assumed, looked up): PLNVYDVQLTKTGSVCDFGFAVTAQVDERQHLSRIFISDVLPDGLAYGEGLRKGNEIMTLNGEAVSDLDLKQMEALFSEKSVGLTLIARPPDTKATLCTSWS

GRIP1_2, Q9Y3R0 = target: T8, GRIP1_2, Q9Y3R0
T8 sequence (Q9Y3R0 145-248, limits assumed, looked up): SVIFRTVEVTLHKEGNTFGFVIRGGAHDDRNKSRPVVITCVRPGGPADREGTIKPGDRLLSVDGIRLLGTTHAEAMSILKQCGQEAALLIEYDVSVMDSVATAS

Inadl_6, Q8NI35 = target: Inadl_6, Q8NI35
NHERF3_1, Q5T2W1 = target: T9, NHERF3_1, Q5T2W1
T9 sequence (Q5T2W1 4-100, limits assumed, looked up): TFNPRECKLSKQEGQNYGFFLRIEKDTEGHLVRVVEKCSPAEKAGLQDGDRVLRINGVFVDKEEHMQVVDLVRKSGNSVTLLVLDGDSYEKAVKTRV

FRMPD1, Q5SYB0 = target: T10, FRMPD1, Q5SYB0
T10 sequence (Q5SYB0 52-145, limits assumed, looked up): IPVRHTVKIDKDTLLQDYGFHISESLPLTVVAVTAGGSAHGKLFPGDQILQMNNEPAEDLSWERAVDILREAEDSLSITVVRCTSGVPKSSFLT

SNTA1, Q13424 = target: T11, SNTA1, Q13424
T11 sequence (Q13424 82-180, limits assumed, looked up): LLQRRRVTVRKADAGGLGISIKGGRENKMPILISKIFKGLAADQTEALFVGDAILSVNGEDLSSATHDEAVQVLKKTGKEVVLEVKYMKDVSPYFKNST

PICK1, Q9NRD5 = target: PICK1, Q9NRD5
CARD11, Q9BXL7 = target: T12, CARD11, Q9BXL7
T12 sequence (Q9BXL7 662-765, limits assumed, looked up): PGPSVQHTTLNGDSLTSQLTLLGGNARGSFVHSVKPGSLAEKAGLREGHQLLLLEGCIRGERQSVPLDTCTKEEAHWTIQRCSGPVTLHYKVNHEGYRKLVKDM

ARHGEF12, Q9NZN5-2 = target: ARHGEF12, Q9NZN5-2
GRIP2_3, Q9C0E4 = target: GRIP2_3, Q9C0E4
MAGI2_6, Q86UL8 = target: MAGI2_6, Q86UL8
NOS1, P29475 = target: NOS1, P29475
APBA3_1, O96018 = target: T13, APBA3_1, O96018
T13 sequence (O96018 389-490, limits assumed, looked up): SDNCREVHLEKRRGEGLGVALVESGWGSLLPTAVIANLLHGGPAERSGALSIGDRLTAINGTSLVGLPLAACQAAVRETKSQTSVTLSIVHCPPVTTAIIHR

IL16_1, Q14005, sequence (Q14005 210-306): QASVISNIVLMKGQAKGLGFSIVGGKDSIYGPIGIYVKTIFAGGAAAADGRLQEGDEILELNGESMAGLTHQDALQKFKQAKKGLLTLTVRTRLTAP
NHERF4_2, Q86UT5, sequence (Q86UT5 220-308): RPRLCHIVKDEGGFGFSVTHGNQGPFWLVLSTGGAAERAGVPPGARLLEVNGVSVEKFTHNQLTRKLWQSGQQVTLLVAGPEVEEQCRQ
ARHGEF12, Q9NZN5-2, sequence (Q9NZN5 other isoform, or with tags, fused parts or gaps): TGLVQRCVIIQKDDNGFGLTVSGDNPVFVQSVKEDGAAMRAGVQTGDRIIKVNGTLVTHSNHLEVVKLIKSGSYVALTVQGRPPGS
GRIP2_3, Q9C0E4, sequence (Q9C0E4 238-339): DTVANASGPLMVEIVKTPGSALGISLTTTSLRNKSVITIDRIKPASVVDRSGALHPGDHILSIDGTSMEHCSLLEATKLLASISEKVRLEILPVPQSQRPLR
HTRA2, O43464, sequence (O43464 355-458): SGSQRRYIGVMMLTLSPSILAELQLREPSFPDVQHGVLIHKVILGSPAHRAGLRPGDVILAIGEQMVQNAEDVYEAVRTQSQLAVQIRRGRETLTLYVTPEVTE
GRIP2_6, Q9C0E4, sequence (Q9C0E4 648-740): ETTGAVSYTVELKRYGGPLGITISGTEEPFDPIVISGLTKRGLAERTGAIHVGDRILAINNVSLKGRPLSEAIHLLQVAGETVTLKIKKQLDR
Inadl_6, Q8NI35, sequence (Q8NI35 1058-1167): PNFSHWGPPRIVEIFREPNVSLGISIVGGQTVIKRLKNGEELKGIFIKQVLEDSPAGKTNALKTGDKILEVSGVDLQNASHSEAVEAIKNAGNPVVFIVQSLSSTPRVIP
DLG5_1, Q8TDM6, sequence (Q8TDM6 617-713): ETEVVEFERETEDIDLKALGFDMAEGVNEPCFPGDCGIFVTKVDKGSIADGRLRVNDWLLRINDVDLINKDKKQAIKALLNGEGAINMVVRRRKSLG
MAGI2_6, Q86UL8, sequence (Q86UL8 1141-1229): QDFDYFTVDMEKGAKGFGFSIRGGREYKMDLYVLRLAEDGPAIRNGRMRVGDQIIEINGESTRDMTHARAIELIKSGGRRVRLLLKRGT
CASK, O14936, sequence (O14936 487-570): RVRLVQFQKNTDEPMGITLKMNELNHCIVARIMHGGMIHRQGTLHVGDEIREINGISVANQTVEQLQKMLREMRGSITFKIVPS
PICK1, Q9NRD5, sequence (Q9NRD5 17-115): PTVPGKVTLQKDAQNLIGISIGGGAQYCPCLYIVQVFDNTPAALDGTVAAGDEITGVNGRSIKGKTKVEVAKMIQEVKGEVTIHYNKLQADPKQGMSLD
NOS1, P29475, sequence (P29475 9-101): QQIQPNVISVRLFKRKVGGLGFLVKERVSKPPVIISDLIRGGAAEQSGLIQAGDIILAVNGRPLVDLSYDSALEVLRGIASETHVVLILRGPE

Binder	pKd (DLG5_1, Q8TDM6)	pKd (APBA2_1, Q99767)	pKd (MPP6, Q9NZW5)	pKd (GRIP2_6, Q9C0E4)	pKd (PCLO, Q9Y6V0)	pKd (CASK, O14936)	pKd (IL16_1, Q14005)	pKd (NHERF4_2, Q86UT5)	pKd (DVL3, Q92997)	pKd (TJP3_3, O95049)	pKd (HTRA2, O43464)	pKd (ARHGEF11, O15085)	pKd (TIAM2, Q8IVF5)	pKd (GRIP1_2, Q9Y3R0)	pKd (Inadl_6, Q8NI35)	pKd (NHERF3_1, Q5T2W1)	pKd (FRMPD1, Q5SYB0)	pKd (SNTA1, Q13424)	pKd (PICK1, Q9NRD5)	pKd (CARD11, Q9BXL7)	also measured
LRYARPADAL [PPP1R3G, B7ZBB8]	below the threshold	below the threshold	below the threshold	below the threshold	below the threshold	below the threshold	below the threshold	below the threshold	below the threshold	below the threshold	below the threshold	below the threshold	below the threshold	below the threshold	below the threshold	3.9	below the threshold	below the threshold	below the threshold	below the threshold	pKd (ARHGEF12, Q9NZN5-2): below the threshold; pKd (GRIP2_3, Q9C0E4): below the threshold; pKd (MAGI2_6, Q86UL8): below the threshold; pKd (NOS1, P29475): 4.36; pKd (APBA3_1, O96018): below the threshold
SKSLERATQL [COMMD3, Q9UBI1]	below the threshold	below the threshold	below the threshold	below the threshold	below the threshold	below the threshold	below the threshold	below the threshold	3.58	below the threshold	below the threshold	4.57	3.88	3.5	3.57	5.82	below the threshold	4.06	below the threshold	below the threshold	pKd (ARHGEF12, Q9NZN5-2): 4.79; pKd (GRIP2_3, Q9C0E4): below the threshold; pKd (MAGI2_6, Q86UL8): 3.79; pKd (NOS1, P29475): 4.02; pKd (APBA3_1, O96018): below the threshold
QELLEYETTV [XKR7, Q5GH72]	3.69	below the threshold	below the threshold	3.55	below the threshold	below the threshold	4.12	below the threshold	below the threshold	3.5	below the threshold	4.56	below the threshold	below the threshold	4.01	3.93	below the threshold	4.98	below the threshold	below the threshold	pKd (ARHGEF12, Q9NZN5-2): 4.02; pKd (GRIP2_3, Q9C0E4): below the threshold; pKd (MAGI2_6, Q86UL8): 4.45; pKd (NOS1, P29475): below the threshold; pKd (APBA3_1, O96018): below the threshold
REVVMRVTTV [MARCHF9, Q86YJ5]	below the threshold	below the threshold	3.63	below the threshold	below the threshold	3.5	4.17	3.49	below the threshold	below the threshold	3.56	4.65	3.85	below the threshold	3.89	below the threshold	below the threshold	5.27	below the threshold	below the threshold	pKd (ARHGEF12, Q9NZN5-2): 4.8; pKd (GRIP2_3, Q9C0E4): below the threshold; pKd (MAGI2_6, Q86UL8): 4.4; pKd (NOS1, P29475): 3.76; pKd (APBA3_1, O96018): below the threshold
WRSKRTDTLL [RAMP3, O60896]	below the threshold	below the threshold	3.75	below the threshold	below the threshold	below the threshold	below the threshold	below the threshold	below the threshold	below the threshold	below the threshold	3.47	below the threshold	below the threshold	below the threshold	5.16	below the threshold	3.59	below the threshold	below the threshold	pKd (ARHGEF12, Q9NZN5-2): 4.03; pKd (GRIP2_3, Q9C0E4): below the threshold; pKd (MAGI2_6, Q86UL8): 3.69; pKd (NOS1, P29475): 3.89; pKd (APBA3_1, O96018): below the threshold
VISERNSTTV [C3AR1, Q16581]	below the threshold	below the threshold	below the threshold	below the threshold	below the threshold	below the threshold	below the threshold	below the threshold	below the threshold	below the threshold	below the threshold	4.45	below the threshold	below the threshold	below the threshold	below the threshold	below the threshold	3.79	below the threshold	below the threshold	pKd (ARHGEF12, Q9NZN5-2): 4.33; pKd (GRIP2_3, Q9C0E4): below the threshold; pKd (MAGI2_6, Q86UL8): 3.49; pKd (NOS1, P29475): below the threshold; pKd (APBA3_1, O96018): below the threshold
